Two substances from publication PMC10786401 can be followed below.

The target in assay [1] is Wild-type ZIKV capsid (C) protein as N-terminal MBP fusion (MBP-CWT) (Zika virus MR766). Put plainly: cross-linking; glutaraldehyde 0, 0.25, 0.5 and 1.0 mM; MBP-C protein 0.16 mg/ml in PBS, 50 uL, room temperature, 20 min, stopped with 50 mM Tris pH 8; SDS-PAGE, Coomassie blue.
For assay [2], the target named is N67A mutant ZIKV capsid (C) protein as N-terminal MBP fusion (MBP-C_(N67A)) (Zika virus MR766). The assay is described as above.

As usually defined, the stoichiometry N is the number of molecules, sites or subunits per partner or assembly. In assay [1], “Wild-type ZIKV capsid (C) protein as N-terminal MBP fusion (MBP-CWT) (natural protein)” yielded a stoichiometry N of 2.

Substance “N67A mutant ZIKV capsid (C) protein as N-terminal MBP fusion (MBP-C_(N67A)) (natural protein)” gave a stoichiometry N in assay [2] of 2.
